Laboratory results reported in paper PMC5760271.
Read-outs that look alike come from different tables or passages of the source.

Legend:
Test in all cases: limited trypsin proteolysis
FnoCas9 [1] = target: T1, FnoCas9 (Francisella tularensis novicida, UniProt A0Q5Y3 1-1629)
SpyCas9 [2] = target: T2, SpyCas9 (Streptococcus pyogenes, UniProt Q99ZW2 1-1368)
FnoCas9 [3] = target: T1, FnoCas9; remark: listed apart in the source
SpyCas9 [4] = target: T2, SpyCas9; remark: listed apart in the source

T1 sequence (A0Q5Y3 whole entry): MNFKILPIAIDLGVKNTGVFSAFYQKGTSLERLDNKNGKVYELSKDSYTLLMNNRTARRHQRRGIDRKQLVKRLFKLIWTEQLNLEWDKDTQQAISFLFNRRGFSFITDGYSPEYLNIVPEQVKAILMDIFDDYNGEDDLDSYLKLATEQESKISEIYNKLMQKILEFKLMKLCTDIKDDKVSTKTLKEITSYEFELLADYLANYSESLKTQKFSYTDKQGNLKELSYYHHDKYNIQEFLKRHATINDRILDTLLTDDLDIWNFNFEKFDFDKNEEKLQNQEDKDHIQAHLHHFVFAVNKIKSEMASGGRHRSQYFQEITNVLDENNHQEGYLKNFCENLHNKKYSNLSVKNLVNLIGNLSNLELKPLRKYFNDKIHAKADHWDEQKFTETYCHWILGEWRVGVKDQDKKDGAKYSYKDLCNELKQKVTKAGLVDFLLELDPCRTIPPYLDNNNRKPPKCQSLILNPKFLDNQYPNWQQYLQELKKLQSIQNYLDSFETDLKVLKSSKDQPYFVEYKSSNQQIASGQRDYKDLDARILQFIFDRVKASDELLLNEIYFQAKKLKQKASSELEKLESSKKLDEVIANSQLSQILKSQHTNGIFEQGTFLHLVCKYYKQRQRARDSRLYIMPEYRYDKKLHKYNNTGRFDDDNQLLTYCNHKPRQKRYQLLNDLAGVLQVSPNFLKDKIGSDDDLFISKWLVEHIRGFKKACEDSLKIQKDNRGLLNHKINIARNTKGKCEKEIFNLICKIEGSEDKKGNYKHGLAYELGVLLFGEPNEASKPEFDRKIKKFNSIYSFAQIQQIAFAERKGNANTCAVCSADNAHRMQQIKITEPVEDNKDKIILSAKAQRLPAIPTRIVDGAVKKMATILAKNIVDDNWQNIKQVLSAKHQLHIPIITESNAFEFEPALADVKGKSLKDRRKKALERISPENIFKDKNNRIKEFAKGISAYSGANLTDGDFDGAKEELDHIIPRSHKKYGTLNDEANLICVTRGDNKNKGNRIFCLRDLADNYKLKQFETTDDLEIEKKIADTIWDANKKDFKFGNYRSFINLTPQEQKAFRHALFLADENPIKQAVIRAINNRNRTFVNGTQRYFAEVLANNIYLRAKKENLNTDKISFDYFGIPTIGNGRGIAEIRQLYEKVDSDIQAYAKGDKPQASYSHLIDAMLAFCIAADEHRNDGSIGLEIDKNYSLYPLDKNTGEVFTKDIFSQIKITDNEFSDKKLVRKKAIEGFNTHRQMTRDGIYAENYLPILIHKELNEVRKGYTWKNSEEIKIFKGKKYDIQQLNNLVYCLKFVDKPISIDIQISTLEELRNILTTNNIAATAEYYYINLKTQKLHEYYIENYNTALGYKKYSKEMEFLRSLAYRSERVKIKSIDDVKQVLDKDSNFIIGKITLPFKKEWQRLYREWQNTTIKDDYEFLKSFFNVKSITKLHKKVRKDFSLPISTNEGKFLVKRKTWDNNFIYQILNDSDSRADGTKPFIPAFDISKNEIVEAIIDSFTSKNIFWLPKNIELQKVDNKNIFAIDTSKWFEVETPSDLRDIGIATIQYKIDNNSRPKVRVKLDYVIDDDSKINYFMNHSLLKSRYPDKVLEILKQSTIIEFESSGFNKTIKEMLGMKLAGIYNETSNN
T2 sequence (Q99ZW2 whole entry): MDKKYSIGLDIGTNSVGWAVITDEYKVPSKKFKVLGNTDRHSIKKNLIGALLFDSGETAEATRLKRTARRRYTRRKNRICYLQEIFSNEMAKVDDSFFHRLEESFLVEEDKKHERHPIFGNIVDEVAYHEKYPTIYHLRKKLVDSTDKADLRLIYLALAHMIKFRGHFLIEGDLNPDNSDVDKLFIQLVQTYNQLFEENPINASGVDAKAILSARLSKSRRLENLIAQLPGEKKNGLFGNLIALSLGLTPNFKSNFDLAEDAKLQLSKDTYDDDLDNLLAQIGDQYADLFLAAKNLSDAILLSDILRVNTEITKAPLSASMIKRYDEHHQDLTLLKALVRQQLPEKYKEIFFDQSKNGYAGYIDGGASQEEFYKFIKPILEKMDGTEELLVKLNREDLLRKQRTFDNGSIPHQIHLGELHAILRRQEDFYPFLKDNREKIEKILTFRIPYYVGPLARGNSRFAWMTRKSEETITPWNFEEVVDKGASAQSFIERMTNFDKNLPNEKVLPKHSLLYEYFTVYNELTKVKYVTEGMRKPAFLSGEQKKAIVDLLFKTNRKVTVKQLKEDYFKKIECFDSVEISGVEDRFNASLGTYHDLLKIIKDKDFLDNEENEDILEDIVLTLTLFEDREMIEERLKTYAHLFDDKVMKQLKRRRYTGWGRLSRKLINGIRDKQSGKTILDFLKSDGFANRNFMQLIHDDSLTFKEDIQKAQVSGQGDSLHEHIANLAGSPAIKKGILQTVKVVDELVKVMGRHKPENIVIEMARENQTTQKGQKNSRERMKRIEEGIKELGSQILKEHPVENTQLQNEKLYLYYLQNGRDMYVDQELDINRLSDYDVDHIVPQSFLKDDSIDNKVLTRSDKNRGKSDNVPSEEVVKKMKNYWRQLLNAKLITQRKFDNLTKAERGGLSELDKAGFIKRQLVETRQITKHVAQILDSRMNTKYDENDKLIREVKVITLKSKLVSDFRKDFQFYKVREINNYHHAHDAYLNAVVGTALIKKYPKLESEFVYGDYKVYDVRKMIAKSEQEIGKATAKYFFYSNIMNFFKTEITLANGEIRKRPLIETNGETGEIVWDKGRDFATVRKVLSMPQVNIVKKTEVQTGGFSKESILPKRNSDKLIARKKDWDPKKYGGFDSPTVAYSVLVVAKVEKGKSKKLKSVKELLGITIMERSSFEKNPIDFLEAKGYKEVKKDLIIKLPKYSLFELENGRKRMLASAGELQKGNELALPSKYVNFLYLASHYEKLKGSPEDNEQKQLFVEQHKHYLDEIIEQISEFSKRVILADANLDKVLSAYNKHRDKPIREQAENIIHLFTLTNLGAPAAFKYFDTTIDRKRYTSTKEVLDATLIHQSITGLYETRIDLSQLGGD

B1: FnoCas9 crRNA-tracrRNA (structured_RNA)
RNA 1: GGGAUAACUCAAUUUGUAAAAAAGUUUCAGUUGCUGAAUUAUUUGGUAAAC
RNA 2: GGGCCAAAUAAUUAAUGCUCUGUAAUCAUUUAAAAGUAUUUUGAACGGACCUCUGUUUGACACGUCUGAAUAACUAAAAAGCAAAAAUUUGCCACCUAAGUGGCUUUUUUU
B1: binds (FnoCas9 [1]).

B2: 60-mer ss oligo (197-FR) (ssDNA)
DNA: AGCAGATTGTACTGAGAGTGCACCATATGCGGTGTGAAATACCGCACAGATGCGTAAGGA
B2: binds (SpyCas9 [2]); binds (FnoCas9 [3]).

B3: SpyCas9 sgRNA (structured_RNA)
RNA: GGGAUUUCUUCUUGCGCUUUUUGUUUUAGAGCUAUGCUGUUUUGGAAACAAAACAGCAUAGCAAGUUAAAAUAAGGCUAGUCCGUUAUCAACUUGAAAAAGUGGCACCGAGUCGGUGCUUUUUU
B3: binds (SpyCas9 [4]).
